Values of other authors, collected in PMC7599994.

Target: HIV-1 capsid CA CTD (Human immunodeficiency virus 1) (UniProt O93182)

Substance: HIV-1 capsid CA CTD (from UniProt O93182)
- Kd: 10 µM
